Measurements: article doi:10.1101/2024.12.02.626349

Molecular target: endogenous UBR4 tagged with FLAG at the UBR4 locus (human (endogenous in HEK293T)) (UniProt Q5T4S7)
Assay: cryo-EM structure

Sequence of endogenous UBR4 tagged with FLAG at the UBR4 locus (Q5T4S7 whole entry): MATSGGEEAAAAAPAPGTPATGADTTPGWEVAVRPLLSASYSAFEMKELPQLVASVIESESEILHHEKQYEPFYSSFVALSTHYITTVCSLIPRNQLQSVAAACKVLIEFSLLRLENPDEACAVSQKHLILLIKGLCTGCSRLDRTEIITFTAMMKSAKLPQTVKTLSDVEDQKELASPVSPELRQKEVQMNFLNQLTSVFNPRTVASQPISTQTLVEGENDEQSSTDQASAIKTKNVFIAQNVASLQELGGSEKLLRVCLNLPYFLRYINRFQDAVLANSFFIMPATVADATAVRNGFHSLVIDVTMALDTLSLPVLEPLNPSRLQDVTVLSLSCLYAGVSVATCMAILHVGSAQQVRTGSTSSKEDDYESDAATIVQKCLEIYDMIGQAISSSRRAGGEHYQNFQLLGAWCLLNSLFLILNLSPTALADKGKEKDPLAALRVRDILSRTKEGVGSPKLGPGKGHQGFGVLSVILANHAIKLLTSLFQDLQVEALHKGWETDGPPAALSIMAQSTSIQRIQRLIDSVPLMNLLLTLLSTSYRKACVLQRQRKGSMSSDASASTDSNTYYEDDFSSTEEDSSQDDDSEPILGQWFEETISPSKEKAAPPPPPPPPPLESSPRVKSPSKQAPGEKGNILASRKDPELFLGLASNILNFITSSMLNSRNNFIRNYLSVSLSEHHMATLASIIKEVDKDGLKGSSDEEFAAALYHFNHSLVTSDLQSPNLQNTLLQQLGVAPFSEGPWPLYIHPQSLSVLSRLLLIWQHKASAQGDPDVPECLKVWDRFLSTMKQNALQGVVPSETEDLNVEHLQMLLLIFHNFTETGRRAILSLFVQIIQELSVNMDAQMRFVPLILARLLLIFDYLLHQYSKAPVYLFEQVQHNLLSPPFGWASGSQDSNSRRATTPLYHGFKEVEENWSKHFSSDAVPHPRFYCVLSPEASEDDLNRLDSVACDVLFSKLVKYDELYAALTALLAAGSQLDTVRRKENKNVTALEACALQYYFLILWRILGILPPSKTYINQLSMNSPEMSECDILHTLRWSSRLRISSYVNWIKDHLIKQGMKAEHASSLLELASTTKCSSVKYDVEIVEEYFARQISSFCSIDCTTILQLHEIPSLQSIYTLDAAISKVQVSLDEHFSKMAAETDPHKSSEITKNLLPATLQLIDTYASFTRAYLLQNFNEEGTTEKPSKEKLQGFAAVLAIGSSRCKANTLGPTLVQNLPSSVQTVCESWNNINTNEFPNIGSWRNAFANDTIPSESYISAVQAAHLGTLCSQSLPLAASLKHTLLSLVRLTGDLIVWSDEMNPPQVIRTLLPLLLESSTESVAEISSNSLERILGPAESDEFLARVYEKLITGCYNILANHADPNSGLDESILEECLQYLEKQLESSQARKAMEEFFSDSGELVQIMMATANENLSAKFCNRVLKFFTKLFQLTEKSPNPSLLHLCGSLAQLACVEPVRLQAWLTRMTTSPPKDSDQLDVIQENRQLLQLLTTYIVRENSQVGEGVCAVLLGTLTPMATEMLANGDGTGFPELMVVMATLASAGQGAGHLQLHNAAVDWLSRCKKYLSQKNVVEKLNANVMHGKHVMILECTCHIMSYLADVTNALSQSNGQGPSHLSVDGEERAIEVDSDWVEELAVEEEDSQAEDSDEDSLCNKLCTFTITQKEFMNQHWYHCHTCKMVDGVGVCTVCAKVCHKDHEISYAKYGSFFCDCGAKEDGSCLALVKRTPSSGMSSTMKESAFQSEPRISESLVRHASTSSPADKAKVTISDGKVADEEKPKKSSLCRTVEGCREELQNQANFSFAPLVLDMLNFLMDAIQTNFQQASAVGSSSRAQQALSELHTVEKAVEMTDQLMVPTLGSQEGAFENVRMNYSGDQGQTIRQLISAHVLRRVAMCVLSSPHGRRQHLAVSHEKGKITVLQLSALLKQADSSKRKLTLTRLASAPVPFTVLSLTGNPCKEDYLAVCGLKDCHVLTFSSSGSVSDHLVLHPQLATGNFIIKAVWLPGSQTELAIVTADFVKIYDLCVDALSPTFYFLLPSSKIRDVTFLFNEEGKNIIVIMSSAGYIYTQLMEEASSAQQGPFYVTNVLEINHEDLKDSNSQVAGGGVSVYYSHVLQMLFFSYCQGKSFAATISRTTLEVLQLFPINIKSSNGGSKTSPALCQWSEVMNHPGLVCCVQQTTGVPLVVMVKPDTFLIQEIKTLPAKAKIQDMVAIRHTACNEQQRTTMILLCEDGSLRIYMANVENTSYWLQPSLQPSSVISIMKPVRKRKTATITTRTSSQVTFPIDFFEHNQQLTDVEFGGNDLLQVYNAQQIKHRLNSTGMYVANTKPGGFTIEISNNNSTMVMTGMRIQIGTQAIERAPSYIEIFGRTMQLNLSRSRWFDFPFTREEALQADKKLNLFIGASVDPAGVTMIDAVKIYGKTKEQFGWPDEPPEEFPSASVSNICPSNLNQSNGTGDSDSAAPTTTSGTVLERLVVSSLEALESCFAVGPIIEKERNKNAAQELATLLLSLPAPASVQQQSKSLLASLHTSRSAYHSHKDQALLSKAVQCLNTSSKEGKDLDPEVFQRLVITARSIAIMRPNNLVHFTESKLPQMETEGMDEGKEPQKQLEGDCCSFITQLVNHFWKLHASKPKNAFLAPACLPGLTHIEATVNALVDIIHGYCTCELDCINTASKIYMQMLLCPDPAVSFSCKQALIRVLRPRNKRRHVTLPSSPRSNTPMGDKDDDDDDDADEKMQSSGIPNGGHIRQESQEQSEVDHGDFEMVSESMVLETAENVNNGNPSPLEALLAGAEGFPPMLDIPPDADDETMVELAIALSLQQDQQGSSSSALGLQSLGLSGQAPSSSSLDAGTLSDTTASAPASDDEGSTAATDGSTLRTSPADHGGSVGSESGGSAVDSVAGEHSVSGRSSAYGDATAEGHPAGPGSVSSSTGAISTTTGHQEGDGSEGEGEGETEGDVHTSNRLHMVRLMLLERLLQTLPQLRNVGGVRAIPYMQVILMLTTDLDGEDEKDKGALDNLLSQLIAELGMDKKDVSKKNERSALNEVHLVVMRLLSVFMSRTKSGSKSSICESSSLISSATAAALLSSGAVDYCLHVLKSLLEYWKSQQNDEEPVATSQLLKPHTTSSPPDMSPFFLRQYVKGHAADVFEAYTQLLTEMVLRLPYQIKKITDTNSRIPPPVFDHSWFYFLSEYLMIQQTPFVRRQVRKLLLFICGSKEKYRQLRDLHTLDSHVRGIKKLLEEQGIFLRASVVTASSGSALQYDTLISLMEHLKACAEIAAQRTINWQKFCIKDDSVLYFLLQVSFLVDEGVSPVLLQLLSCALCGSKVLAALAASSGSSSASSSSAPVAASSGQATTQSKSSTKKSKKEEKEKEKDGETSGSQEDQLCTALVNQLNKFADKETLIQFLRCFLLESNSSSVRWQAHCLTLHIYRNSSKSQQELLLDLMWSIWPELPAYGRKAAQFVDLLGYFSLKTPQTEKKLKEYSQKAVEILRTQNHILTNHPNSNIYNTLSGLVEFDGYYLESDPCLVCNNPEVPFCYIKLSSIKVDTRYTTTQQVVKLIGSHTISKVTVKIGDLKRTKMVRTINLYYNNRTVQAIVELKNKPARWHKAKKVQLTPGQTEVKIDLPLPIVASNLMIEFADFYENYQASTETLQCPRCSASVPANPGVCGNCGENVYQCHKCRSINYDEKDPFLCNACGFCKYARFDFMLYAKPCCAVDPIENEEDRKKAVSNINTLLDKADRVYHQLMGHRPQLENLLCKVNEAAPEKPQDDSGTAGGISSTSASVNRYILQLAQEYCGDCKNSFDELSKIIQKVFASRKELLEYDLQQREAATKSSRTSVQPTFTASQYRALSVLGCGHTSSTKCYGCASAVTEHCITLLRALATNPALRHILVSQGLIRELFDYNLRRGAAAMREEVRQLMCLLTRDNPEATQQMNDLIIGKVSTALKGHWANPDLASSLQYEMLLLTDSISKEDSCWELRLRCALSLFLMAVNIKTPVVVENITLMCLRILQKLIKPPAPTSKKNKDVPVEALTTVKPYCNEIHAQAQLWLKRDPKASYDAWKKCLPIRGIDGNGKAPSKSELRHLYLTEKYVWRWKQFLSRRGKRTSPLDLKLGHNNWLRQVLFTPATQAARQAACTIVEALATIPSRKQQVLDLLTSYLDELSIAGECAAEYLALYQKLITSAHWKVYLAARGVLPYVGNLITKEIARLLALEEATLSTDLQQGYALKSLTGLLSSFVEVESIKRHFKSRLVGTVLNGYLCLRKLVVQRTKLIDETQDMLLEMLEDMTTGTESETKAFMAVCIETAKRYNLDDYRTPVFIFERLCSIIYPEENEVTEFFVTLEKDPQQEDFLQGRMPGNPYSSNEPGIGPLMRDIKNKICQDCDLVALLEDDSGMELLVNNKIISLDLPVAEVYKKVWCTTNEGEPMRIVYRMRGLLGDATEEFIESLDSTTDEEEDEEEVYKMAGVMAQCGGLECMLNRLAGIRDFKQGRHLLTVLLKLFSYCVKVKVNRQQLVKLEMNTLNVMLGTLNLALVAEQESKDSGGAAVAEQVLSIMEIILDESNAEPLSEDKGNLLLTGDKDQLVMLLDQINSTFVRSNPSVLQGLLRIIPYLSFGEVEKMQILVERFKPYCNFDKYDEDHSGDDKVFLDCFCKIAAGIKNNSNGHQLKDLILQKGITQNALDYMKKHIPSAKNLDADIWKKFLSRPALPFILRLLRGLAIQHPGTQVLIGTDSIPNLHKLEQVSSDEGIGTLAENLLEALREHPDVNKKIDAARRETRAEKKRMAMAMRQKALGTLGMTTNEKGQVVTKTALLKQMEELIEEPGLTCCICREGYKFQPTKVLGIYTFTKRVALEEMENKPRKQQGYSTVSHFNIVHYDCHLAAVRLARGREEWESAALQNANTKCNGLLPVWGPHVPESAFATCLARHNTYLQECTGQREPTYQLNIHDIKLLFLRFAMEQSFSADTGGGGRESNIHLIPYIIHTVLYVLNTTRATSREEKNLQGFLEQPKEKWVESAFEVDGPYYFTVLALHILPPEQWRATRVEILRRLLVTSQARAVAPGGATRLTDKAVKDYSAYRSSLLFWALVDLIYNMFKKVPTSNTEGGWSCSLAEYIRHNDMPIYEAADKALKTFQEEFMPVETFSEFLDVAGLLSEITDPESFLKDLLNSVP

stoichiometry N: 2
Substance: endogenous UBR4 tagged with FLAG at the UBR4 locus (from UniProt Q5T4S7-1 1-5183) (natural protein)
